# From the DeepSol protein solubility set
# Experiment: soluble on expression in E. coli; label from the status in PepcDB or PDB records
row,Sequence,soluble on expression in E. coli
1,SPSAEERQKEERTAGLNETVPQATDGELPDDKLKGYELGRDEEKESHRQETLGNLYDYFEKKDETREQEISEEAASDGLHPIERSVSRYEETSQMVHSFYEPPAYDYEKEALREELDMIRSELATLKEEKEEEIDHLELLEKSYRMAAKYFPASGDANSRDAYTRSQERPADAPAPKTAVTAERAALPAVELLPEKKAIVSSLDQPMSDSAFIAEYGHKERNFGFRSADVPASSVTRNTLRVVVDRTTTLQHGDFVQLRLLESARLHDLSIPRHTRLMAQARIDGNRMKLHITSIEYGGRIVSVQLSAFDTDGQEGVFIPGSEEVSALKE,not soluble
2,SQIPASEQETLVRPKPLLLKLLKSVGAQKDTYTMKEVLFYLGQYIMTKRLYDEKQQHIVYCSNDLLGDLFGVPSFSVKEHRKIYTMIYRNLVVVNQQESSDSGTSVSENHHHHHH,soluble
3,SQPKLALKQLAKQGDECLKKGAWVLIFPEGTRIPVGQMGKFSRGGTALAVNAGLPVLPIAHNAGQYWPKAGWAKYPGTIQVVIGPAMHAEGEGPRAIAELNQRAEAWVSETMAEISPIQQRVSHPEPSVVS,not soluble
4,SQRGVLEDEQMYQRCCNLFEKFFPSSSYRRPVGISSMVEAMVSRARIDARIDFESGRIKKEEFTEIMKICSTIEELRRQK,soluble
5,SRRRRSGTEPEKIEPGEGASRSRRDMLKDGGQQGLGTGARDPDKATRFRMEELRLTSTTFALTGDSAHNQAMVHWSGHNSSVILILTKLYDYNLGSITESSLWRSTDYGTTYEKLNDKVGLKTILSYLYVCPTNKRKIMLLTDPEIESSLLISSDEGATYQKYRLNFYIQSLLFHPKQEDWILAYSQDQKLYSSAEFGRRWQLIQESVVPNRFYWSVMGSSKEPDLVHLEARTVDGHSIYLTCRMQNCTEANRNKPFPGYIDPDSLIVQDDYVFVQLTSGGRPHYYVSYRRSPFAQMKLPKYALPKDMHVISTDENQVFAAVQEWNQNDTYNLYISDTRGVYFTLALENVQSSRGPEGNVMIDLYEVAGIKGMFLANKKIDNQVKTFITYNKGRDWRLLQAPDADLRGDPVHCLLPYCSLHLHLKVSENPYTSGIIASRDTAPSIIVASGNIGSELSDSDISMFVSSDAGNTWRQIFEEEHSILYLDQGGVLVAMKHTSLPIRHLWLSFDEGRSWSKYSFTSIPLFVDGVLGEPGEETLIMTVFGHFSHRSEWQLVKVDYKSIFDRRCAEEDYRPWQLHSQGEACIMGAKRIYKKRKSERKCMQGKYAGAMESEPCVCTEADFDCDYGYERHSNGQCLPAFWFNPSSLSKDCSLGQSYLNSTGYRKVVSNNCTDGVREQYTAKPQKCP,soluble
6,SSGAQGAEPMDSRTATTYESVEGGQNKTKLDIRSKEDEGGIQVDKLQDKVSDAAGLGGPVFGAGKDDKKQDLGVTGTG,soluble
7,SSGLVPRGPLGSHMDAVDATMEKLRAQCLSRGASGIQGLARFFRQLDRDGSRSLDADEFRQGLAKLGLVLDQAEAEGVCRKWDRNGSGTLDLEEFLRALRPPMSQAREAVIAAAFAKLDRSGDGVVTVDDLRGVYSGRAHPKVRSGEWTEDEVLRRFLDNFDSSEKDGQVTLAEFQDYYSGVSASMNTDEEFVAMMTSAWQLKL,soluble
8,SSKEAFDELSVLSAIYCEQGEFEVLEESPEKGVVFRVHTLIDNNEKTPLDIIFHISPEYPNTPPDISISSNHLSRRQCHDLRRSLLDTAQSLPAEPMVHGLMLWLQENFSDLIKTSSCHSAEVRPETTEETWTALLHLDHMRSKAKYIKLIEKWTLELRLTGRLFTGKLILILLQGTKENIKQYIHLLKSVKVDVDSSGKRCKEKMMSVLCEIPKPEDKIMMTTFEVKDILSLDDLRREFDLIGLNELYHQFVSSLT,soluble
9,SSRIGEIKEETTSHLRSCEYKGRPPKAGAEPASEREVS,soluble
